Reference: patent US20070020283A1 (Regeneron, published 2007)
Residue numbers refer to the chain shown, from its start. Numbers in names are those of the source.

T1: hIFNγRβ.SG.hFc (human, UniProt P38484 28-246)
T1 construct: also called pCTR 2828; not shown: hinge, CH2 and CH3 regions of human IgG1 (hFc)
T1 sequence: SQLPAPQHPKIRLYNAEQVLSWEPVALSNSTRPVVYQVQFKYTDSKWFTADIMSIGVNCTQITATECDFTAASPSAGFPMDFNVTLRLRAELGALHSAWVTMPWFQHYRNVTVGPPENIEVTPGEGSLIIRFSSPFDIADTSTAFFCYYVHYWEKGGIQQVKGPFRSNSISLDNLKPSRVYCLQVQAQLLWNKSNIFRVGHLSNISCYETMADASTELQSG

B1: human interferon γ (ligand, UniProt P01579 24-166, looked up)
chain: QDPYVKEAENLKKYFNAGHSDVADNGTLFLGILKNWKEESDRKIMQSQIVSFYFKLFKNFKDDQSIQKSVETIKEDMNVKFFNSNKKKRDDFEKLTNYSVTDLNVQRKAIHELIQVMAELSPAAKTGKRKRSQMLFRGRRASQ
notes: Injected in solution over captured fusion proteins (BiaCore); Recombinant human IFNγ at 4 pM in the luciferase bioassays; also called IFNγ; human IFNγ
B2: hIFNγRβ(C174S).SG.hFc (Fc fusion)
chain: T1 sequence with C147S
notes: also called pCTR 2848; not shown: hinge, CH2 and CH3 regions of human IgG1 (hFc)
B3: hIFNγRβ.TG.hIFNγRα(1-239).SG.hFc (Fc fusion)
chain: SQLPAPQHPKIRLYNAEQVLSWEPVALSNSTRPVVYQVQFKYTDSKWFTADIMSIGVNCTQITATECDFTAASPSAGFPMDFNVTLRLRAELGALHSAWVTMPWFQHYRNVTVGPPENIEVTPGEGSLIIRFSSPFDIADTSTAFFCYYVHYWEKGGIQQVKGPFRSNSISLDNLKPSRVYCLQVQAQLLWNKSNIFRVGHLSNISCYETMADASTELQTGMALLFLLPLVMQGVSRAEMGTADLGPSSVPTPTNVTIESYNMNPIVYWEYQIMPQVPVFTVEVKNYGVKNSEWIDACINISHHYCNISDHVGDPSNSLWVRVKARVGQKESAYAKSEEFAVCRDGKIGPPKLDIRKEEKQIMIDIFHPSVFVNGDEQEVDYDPETTCYIRVYNVYVRMNGSEIQYKILTQKEDDCDEIQCQLAIPVSSLNSQYCVSAEGVLHVWGVTTEKSKEVCITIFSG
notes: PCTR number 2843 is printed for two different constructs (r17 and r19); also called pCTR 2843; R2-R1-Fc; not shown: hinge, CH2 and CH3 regions of human IgG1 (hFc)
B4: hIFNγRα(1-239).SG.hFc (Fc fusion, not shown: a dimerising Fc or GST)
chain: EMGTADLGPSSVPTPTNVTIESYNMNPIVYWEYQIMPQVPVFTVEVKNYGVKNSEWIDACINISHHYCNISDHVGDPSNSLWVRVKARVGQKESAYAKSEEFAVCRDGKIGPPKLDIRKEEKQIMIDIFHPSVFVNGDEQEVDYDPETTCYIRVYNVYVRMNGSEIQYKILTQKEDDCDEIQCQLAIPVSSLNSQYCVSAEGVLHVWGVTTEKSKEVCITIFSG
B5: hIFNγRα(1-239).TG.hFc.ARA.hIFNγRβ (Fc fusion, not shown: a dimerising Fc or GST)
chain (part 1 of 2): B4 chain with S223T
chain (part 2 of 2): ARASQLPAPQHPKIRLYNAEQVLSWEPVALSNSTRPVVYQVQFKYTDSKWFTADIMSIGVNCTQITATECDFTAASPSAGFPMDFNVTLRLRAELGALHSAWVTMPWFQHYRNVTVGPPENIEVTPGEGSLIIRFSSPFDIADTSTAFFCYYVHYWEKGGIQQVKGPFRSNSISLDNLKPSRVYCLQVQAQLLWNKSNIFRVGHLSNISCYETMADASTELQ

What was measured:
[1] = biological target: T1, hIFNγRβ.SG.hFc; test: BiaCore, fusion captured by anti-human Fc, human IFNγ injected
Protocol: (§1) The affinity of the interferon γ-binding fusion polypeptides for human interferon γ was measured using a BlAcore 2000™ or BlAcore 3000™, as described in WO 00/75319, herein specifically incorporated by reference in its entirety. Briefly, the IFNγ-specific polypeptides were produce as small-scale supernatants by transiently transfecting CHO cells, using Lipofectamine/LIPO Plus® (Life Technologies), with DNA constructs encoding the proteins. Supernatants were collected after 72 hours and protein expression was measured by Western blotting with anti-human Fc HRP-conjugated antibody (Promega) and visualized by ECL (Pierce). Briefly, 5.4×10⁵ CHOK1 cells per well of a 6 well tissue culture dish were transfected using 1 μg of DNA and 5 μl of lipofectamine in OptiMEM™ (Gibco). After 12 h the cells were washed with OptiMEM™ and 2 ml of CHO serum free medium (Gibco) was added. After 60 h and 72 h the media was collected and centrifuged to remove cellular debris. For the BiaCore™ analysis, the IFNγ-binding fusion polypeptides from the transiently transfected CHO supernatants were captured onto the chip surface using anti-human Fc antibodies. Various concentrations of human IFNγ are injected over the surface and the time course of association and dissociation are monitored. Kinetic analyses using BIA evaluation software were performed to obtain the association and dissociation rate constants.

[2] = biological target: B5; test: BiaCore (SPR), fusion captured by anti-human Fc, human IFNγ injected; R1-Fc-R2 configuration
Protocol: as §1

[3] = biological target: B4; test: BiaCore (SPR), fusion from CHO supernatant captured by anti-human Fc, human IFNγ injected
Protocol: as §1

[4] = biological target: B1; test: BiaCore, fusion captured by anti-human Fc, human IFNγ injected
Protocol: as §1

[5] = biological target: B1; test: cell-based or functional assay
[6] = biological target: B1; test: BiaCore (SPR), fusion captured by anti-human Fc, human IFNγ injected; R2-R1-Fc configuration
Protocol: as §1

Binder	IC50 (M), GAS-luciferase bioassay in HEK293 cells [5]	IC50 (M), ISRE-luciferase bioassay in HEK293 cells [5]	further results
B1			binding result [1]: no binding; Kd [2]: > 10 nM; Kd [3]: 6 nM
B2			binding result [4]: no binding
B3	9.8e-09 M	1.46e-08 M	Kd [6]: > 10 nM
B4	7.9e-09 M	6.2e-09 M	
B5	1.6e-08 M	8e-07 M	
